In article PMC3616717:

B1: human RAD51 protein, Q06609 1-339 (natural protein)
chain: MAMQMQLEANADTSVEEESFGPQPISRLEQCGINANDVKKLEEAGFHTVEAVAYAPKKELINIKGISEAKADKILAEAAKLVPMGFTTATEFHQRRSEIIQITTGSKELDKLLQGGIETGSITEMFGEFRTGKTQICHTLAVTCQLPIDRGGGEGKAMYIDTEGTFRPERLLAVAERYGLSGSDVLDNVAYARAFNTDHQTQLLYQASAMMVESRYALLIVDSATALYRTDYSGRGELSARQMHLARFLRMLLRLADEFGVAVVITNQVVAQVDGAAMFAADPKKPIGGNIIAHASTTRLYLRKGRGETRICKIYDSPCLPEAEAMFAINADGVGDAKD
modifications: here or on the partner: biotin on the underlined lysine of the BAP sequence (…)
B2: Cy3/Cy5-labeled poly(dT)60 (oligo g) (ssDNA)
DNA: TTTTTTTTTTTTTTTTTTTTTTTTTTTTTTTTTTTTTTTTTTTTTTTTTTTTTTTTTTTT

Tests used:
[1] = target: T1, human F-box-containing DNA helicase FBH1, FLAG-tagged and biotinylated, non-ubiquitylated (human), Q8NFZ0; assay: single-molecule TIRFM; details: remark: other sources report otherwise
T1 chain: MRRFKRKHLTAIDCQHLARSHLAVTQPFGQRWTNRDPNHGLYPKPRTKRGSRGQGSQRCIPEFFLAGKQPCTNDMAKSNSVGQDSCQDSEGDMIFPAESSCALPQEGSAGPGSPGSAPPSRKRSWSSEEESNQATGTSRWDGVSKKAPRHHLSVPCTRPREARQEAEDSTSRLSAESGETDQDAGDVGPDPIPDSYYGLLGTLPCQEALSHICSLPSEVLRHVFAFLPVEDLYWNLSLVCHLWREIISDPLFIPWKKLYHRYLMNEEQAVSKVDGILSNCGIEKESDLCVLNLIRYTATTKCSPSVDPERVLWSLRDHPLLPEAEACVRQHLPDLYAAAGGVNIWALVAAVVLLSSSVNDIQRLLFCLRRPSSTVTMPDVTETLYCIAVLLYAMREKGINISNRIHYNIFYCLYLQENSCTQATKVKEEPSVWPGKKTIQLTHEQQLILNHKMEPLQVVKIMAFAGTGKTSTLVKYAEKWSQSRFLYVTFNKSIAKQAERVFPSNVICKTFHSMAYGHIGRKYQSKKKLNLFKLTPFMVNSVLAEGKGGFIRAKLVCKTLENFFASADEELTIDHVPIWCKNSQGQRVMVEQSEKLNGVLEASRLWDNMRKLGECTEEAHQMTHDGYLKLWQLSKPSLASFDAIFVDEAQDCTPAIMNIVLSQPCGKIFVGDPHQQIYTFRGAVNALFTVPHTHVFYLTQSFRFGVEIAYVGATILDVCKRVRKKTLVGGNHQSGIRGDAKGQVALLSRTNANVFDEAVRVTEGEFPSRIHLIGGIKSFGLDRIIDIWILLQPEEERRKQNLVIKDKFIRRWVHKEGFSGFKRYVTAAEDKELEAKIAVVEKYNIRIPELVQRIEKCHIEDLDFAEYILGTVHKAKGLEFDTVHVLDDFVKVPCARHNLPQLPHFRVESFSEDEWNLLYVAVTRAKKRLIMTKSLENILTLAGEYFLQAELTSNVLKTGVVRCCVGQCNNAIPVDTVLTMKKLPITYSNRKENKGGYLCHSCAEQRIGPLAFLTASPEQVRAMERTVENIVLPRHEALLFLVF

[2] = target: RAD51 (UniProt Q06609 1-339); assay: single-molecule FRET

Binder	kon [1] [M⁻¹ s⁻¹]	binding result [2]
B1	2.7e+07	–
B2	–	binds
